B1: ASPP1 C-terminal domain (887-1090) (domain or fragment)
chain: NPLALLLDASLEGEFDLVQRIIYEVEDPSKPNDEGITPLHNAVCAGHHHIVKFLLDFGVNVNAADSDGWTPLHCAASCNSVHLCKQLVESGAAIFASTISDIETAADKCEEMEEGYIQCSQFLYGVQEKLGVMNKGVAYALWDYEAQNSDELSFHEGDALTILRRKDESETEWWWARLGDREGYVPKNLLGLYPRIKPRQRTLA
notes: also called ASPP1 CTD
B2: ASPP2 C-terminal domain (925-1128) (domain or fragment)
chain: NPLALLLDSSLEGEFDLVQRIIYEVDDPSLPNDEGITALHNAVCAGHTEIVKFLVQFGVNVNAADSDGWTPLHCAASCNNVQVCKFLVESGAAVFAMTYSDMQTAADKCEEMEEGYTQCSQFLYGVQEKMGIMNKGVIYALWDYEPQNDDELPMKEGDCMTIIHREDEDEIEWWWARLNDKEGYVPRNLLGLYPRIKPRQRSLA
notes: also called ASPP2 CTD
B3: Fyn SH3 domain (85-142) (domain or fragment)
chain: not shown
B4: Lyn SH3 domain (65-122) (domain or fragment)
chain: GDIVVALYPYDGIHPDDLSFKKGEKMKVLEEHGEWWKAKSLLTKKEGFIPSNYVAKLN
B5: Grb2 SH3 domain (1-58) (domain or fragment)
chain: MEAIAKYDFKATADDELSFKRGDILKVLNEECDQNWYKAELNGKDGFIPKNYIEMKPH
B6: LASP1 SH3 domain (205-261) (domain or fragment)
chain: KRYRAVYDYSAADEDEVSFQDGDTIVNVQQIDDGWMYGTVERTGDTGMLPANYVEAI
B7: HCV [1b.Con1] NS5A PRR peptide (peptide)
peptide: WLPPAKAPPIPPPRRKRTVVL
notes: source: synthetic peptide, custom made (TUCF)
B8: HCV [2a.JFH-1] NS5A PRR peptide (peptide)
peptide: WLPPPKKAPTPPPRRRRTVGL
notes: also called NS5A (2a); NS5A PRR peptide (JFH-1); source: synthetic peptide, custom made (TUCF)
B9: HCV [4a.ED43] NS5A PRR peptide (peptide)
peptide: WLPPAKQPPVPSPRRKRTVQL
notes: as for B7

The binders below were run against T1, HCV [1a.1] NS5A PRR peptide (Hepatitis C virus genotype 1a (strain 1)) (assay: ITC; 450 or 300 uM NS5A PRR peptide (syringe) titrated to 30 uM ASPP CTD or SH3 domain (cell), 12 °C, 25 mM HEPES pH 7.5, 150 mM NaCl, 500 uM TCEP; 25 steps of 10 ul; AB hetero association model (SEDPHAT)). Conditions: both partners purified.
T1 construct: source: synthetic peptide, custom made (TUCF)
For B1, the Kd was 9.27 µM.
B2 gave a Kd of 0.234 µM.
B3 showed a Kd of 5.89 µM.
In the case of B4, the Kd is reported as 5.1 µM.
In the case of B5, the Kd is reported as 7.96 µM.
Binder B6 has a Kd of 2.3 µM.

These binders were tested against B1 in the same assay as above. Conditions: both partners purified.
With B7 the Kd was 6.7 µM.
B8 showed a Kd of 3.78 µM.
B9 showed a Kd of 42.8 µM.

The binders below were run against B2 in the same assay as above. Conditions: both partners purified.
Binder B7 has a Kd of 0.0758 µM.
With B8 the Kd was 0.0424 µM.
B9 gave a Kd of 0.741 µM.

— PMC7615710, “ASPP2 binds to hepatitis C virus NS5A protein via an SH3 domain/PxxP motif-mediated interaction and potentiates infection” (The Journal of general virology, 2023)
